In this assay the target is Plasma fibronectin, affinity purified from human plasma (human) (UniProt P02751). Description: cell-based or functional assay.

Where only a bound is given, the exact number is not on record here.

Plasma fibronectin, affinity purified from human plasma (human), sequence (P02751 32-2477): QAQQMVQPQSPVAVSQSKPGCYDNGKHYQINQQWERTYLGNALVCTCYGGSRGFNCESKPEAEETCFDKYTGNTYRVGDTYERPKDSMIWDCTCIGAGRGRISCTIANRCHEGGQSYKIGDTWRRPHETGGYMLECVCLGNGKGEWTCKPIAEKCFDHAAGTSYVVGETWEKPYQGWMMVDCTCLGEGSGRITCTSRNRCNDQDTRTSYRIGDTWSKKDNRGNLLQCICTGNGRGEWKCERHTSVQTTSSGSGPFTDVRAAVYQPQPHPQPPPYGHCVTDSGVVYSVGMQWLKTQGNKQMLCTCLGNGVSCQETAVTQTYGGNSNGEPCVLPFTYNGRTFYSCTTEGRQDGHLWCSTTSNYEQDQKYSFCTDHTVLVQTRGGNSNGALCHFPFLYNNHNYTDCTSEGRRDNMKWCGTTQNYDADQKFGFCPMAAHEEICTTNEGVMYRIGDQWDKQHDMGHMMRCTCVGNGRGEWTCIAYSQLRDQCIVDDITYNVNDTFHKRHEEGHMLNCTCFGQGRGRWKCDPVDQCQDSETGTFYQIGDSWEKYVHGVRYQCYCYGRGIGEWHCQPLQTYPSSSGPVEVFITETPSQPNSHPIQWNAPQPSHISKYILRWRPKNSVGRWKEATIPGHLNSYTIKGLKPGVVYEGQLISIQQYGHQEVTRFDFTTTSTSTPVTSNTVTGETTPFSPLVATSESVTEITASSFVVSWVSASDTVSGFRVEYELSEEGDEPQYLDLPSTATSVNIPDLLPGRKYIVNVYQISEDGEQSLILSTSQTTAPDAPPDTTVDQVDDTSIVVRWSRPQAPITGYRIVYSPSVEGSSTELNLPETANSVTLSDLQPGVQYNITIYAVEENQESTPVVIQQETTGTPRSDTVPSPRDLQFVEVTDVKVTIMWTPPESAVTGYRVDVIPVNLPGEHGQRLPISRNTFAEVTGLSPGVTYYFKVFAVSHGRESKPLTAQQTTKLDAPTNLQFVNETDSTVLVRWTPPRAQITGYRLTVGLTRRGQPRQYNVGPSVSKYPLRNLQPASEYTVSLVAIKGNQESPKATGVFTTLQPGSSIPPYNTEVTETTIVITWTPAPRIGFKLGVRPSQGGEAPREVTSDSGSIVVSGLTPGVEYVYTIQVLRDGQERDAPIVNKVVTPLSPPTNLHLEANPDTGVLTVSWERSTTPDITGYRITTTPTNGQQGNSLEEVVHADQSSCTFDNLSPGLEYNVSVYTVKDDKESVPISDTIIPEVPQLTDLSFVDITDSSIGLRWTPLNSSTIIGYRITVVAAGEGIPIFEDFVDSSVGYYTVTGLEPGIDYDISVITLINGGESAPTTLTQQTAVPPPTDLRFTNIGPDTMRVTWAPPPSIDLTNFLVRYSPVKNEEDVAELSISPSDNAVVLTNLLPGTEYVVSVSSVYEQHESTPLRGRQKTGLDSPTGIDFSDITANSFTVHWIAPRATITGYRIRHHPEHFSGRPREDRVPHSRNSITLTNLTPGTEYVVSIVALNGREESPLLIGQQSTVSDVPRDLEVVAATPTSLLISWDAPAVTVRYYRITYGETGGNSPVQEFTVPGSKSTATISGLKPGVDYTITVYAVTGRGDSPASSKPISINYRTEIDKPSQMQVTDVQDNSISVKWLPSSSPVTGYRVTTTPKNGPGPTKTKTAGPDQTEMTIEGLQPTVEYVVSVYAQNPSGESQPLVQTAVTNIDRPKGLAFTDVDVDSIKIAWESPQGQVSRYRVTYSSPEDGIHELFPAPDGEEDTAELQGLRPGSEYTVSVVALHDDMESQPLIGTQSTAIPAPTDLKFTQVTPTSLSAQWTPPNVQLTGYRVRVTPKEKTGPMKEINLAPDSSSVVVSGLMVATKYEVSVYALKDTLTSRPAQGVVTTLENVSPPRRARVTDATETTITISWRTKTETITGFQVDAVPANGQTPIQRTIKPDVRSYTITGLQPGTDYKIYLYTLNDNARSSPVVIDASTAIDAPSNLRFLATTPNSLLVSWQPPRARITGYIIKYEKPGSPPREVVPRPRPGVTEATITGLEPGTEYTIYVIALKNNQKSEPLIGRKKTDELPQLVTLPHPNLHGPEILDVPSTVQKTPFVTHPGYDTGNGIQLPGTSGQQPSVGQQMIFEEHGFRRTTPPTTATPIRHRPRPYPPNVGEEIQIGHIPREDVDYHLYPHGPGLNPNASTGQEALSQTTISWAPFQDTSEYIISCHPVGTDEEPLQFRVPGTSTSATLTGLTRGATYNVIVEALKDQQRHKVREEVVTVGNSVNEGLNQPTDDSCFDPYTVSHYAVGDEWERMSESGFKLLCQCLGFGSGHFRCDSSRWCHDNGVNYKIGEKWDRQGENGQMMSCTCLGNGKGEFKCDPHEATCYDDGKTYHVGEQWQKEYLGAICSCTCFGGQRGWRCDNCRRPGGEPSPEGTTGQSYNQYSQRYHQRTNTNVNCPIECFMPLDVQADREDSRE
Recombinant Anastellin, P02751 631-703, sequence (P02751 other isoform, or with tags, fused parts or gaps limits assumed): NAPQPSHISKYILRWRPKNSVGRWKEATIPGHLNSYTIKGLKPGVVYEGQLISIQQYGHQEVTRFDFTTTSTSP

Consider Recombinant Anastellin, P02751 631-703, for which the fibronectin aggregation, increase in absorbance at 600 nm was above 20 µM.

(Values after patent US20090170751A1.)
